Measurements taken from article PMC9569990 (International Journal of Molecular Sciences, 2022).

Tests used:
Assay in all cases: SPR; cytokine immobilised on ProteOn GLH sensor chip by amine coupling (9,000-14,000 RU); S100P (wild type or mutant) as analyte, 62 nM-16 µM; 25 °C; 10 mM HEPES, 150 mM NaCl, 1 mM CaCl2, 0.05% TWEEN 20, pH 7.4; heterogeneous ligand model (two ligand populations), one-site model for IL-13; values averaged over analyte concentrations (n = 3-5)
Settings in all cases: both partners purified
Interleukin-27 = target: T1, Interleukin-27 (human, UniProt Q8NEV9 29-243; Q14213 21-229)
T1 construct: the chain used for the SCOP family assignment; also called IL-27; source: bought: PeproTech (source HEK293)
T1 sequence (looked up) 1: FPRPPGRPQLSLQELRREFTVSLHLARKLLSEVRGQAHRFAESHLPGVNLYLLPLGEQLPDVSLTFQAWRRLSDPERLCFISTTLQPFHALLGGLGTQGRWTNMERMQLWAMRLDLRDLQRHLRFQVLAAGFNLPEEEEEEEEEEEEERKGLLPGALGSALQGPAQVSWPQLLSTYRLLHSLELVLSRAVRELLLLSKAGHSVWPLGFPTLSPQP
T1 sequence (looked up) 2: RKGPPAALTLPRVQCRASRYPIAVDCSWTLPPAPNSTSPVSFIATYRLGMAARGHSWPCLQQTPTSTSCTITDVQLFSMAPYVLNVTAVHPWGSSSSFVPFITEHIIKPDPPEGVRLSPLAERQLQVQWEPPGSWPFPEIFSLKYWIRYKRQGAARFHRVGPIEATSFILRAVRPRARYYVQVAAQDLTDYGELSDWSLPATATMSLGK

Interleukin-9 = target: T2, Interleukin-9 (human, UniProt P15248 19-144)
T2 construct: Interleukin-9, human, UniProt P15248; see the manufacturer's catalogue number; also called IL-9; source: bought: PeproTech (source E. coli)
T2 sequence (P15248 19-144): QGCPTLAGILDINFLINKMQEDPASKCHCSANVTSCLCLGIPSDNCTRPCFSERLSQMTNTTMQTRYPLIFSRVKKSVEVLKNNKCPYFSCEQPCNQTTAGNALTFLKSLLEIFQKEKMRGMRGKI

Interleukin-13 = target: T3, Interleukin-13 (human, UniProt P35225 25-146)
T3 construct: Interleukin-13, human, UniProt P35225; see the manufacturer's catalogue number; also called IL-13; source: bought: PeproTech (source E. coli)
T3 sequence (P35225 25-146): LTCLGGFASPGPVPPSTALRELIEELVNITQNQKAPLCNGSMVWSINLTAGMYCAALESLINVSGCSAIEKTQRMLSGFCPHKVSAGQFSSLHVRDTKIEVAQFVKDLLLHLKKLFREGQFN

Interleukin-35 = target: T4, Interleukin-35 (human, UniProt P29459 23-219; Q14213 21-229)
T4 construct: the chain used for the SCOP family assignment; also called IL-35; source: bought: PeproTech (source HEK293)
T4 sequence (looked up) 1: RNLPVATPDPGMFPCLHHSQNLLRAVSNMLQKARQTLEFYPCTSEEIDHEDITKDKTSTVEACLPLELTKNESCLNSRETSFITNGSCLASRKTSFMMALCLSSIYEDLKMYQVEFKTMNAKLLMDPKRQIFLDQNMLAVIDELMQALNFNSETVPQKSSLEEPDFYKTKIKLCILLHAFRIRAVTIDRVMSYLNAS
T4 sequence (looked up) 2: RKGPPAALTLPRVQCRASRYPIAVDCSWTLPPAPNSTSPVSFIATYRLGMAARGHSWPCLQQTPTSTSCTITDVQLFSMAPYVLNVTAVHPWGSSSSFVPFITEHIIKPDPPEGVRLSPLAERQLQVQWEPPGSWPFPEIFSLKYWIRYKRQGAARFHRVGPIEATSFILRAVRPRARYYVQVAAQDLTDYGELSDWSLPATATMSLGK

Interleukin-3 = target: T5, Interleukin-3 (human, UniProt P08700 20-152)
T5 construct: Interleukin-3, human, UniProt P08700; see the manufacturer's catalogue number; also called IL-3; source: bought: SCI-Store (Russia) (source CHO)
T5 sequence (looked up): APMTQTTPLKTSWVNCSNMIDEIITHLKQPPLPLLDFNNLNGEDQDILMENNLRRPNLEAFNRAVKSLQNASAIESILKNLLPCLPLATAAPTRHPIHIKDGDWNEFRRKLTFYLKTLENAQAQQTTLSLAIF

Interferon ω-1 = target: T6, Interferon ω-1 (human, UniProt P05000 22-195)
T6 construct: Interferon omega-1, human, UniProt P05000; see the manufacturer's catalogue number; also called IFN-ω1; source: bought: PeproTech (source E. coli)
T6 sequence (P05000 22-195): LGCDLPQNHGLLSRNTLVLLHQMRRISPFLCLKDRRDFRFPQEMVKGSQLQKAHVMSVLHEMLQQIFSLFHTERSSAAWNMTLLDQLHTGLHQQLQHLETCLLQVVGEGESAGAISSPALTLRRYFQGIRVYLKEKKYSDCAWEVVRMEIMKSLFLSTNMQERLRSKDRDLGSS

Kd1 (heterogeneous ligand model, population 1) (Interleukin-27): 859 nM | Kd2 (heterogeneous ligand model, population 2) (Interleukin-27): 1.69 µM | kd1 (heterogeneous ligand model, population 1) (Interleukin-27): 0.00994 s⁻¹ | kd2 (heterogeneous ligand model, population 2) (Interleukin-27): 0.000357 s⁻¹ | Kd1 (heterogeneous ligand model, population 1) (Interleukin-9): 34.7 nM | Kd2 (heterogeneous ligand model, population 2) (Interleukin-9): 136 nM | kd1 (heterogeneous ligand model, population 1) (Interleukin-9): 0.000531 s⁻¹ | kd2 (heterogeneous ligand model, population 2) (Interleukin-9): 0.017 s⁻¹ | Kd (Interleukin-13): 2300 nM | koff (Interleukin-13): 0.0183 s⁻¹ | Kd1 (heterogeneous ligand model, population 1) (Interleukin-35): 96.2 nM | Kd2 (heterogeneous ligand model, population 2) (Interleukin-35): 255 nM | kd1 (heterogeneous ligand model, population 1) (Interleukin-35): 0.000531 s⁻¹ | kd2 (heterogeneous ligand model, population 2) (Interleukin-35): 0.012 s⁻¹ | Kd1 (heterogeneous ligand model, population 1) (Interleukin-3): 23.2 nM | Kd2 (heterogeneous ligand model, population 2) (Interleukin-3): 579 nM | kd1 (heterogeneous ligand model, population 1) (Interleukin-3): 0.000627 s⁻¹ | kd2 (heterogeneous ligand model, population 2) (Interleukin-3): 0.00529 s⁻¹ | Kd1 (heterogeneous ligand model, population 1) (Interferon ω-1): 174 nM | Kd2 (heterogeneous ligand model, population 2) (Interferon ω-1): 578 nM | kd1 (heterogeneous ligand model, population 1) (Interferon ω-1): 0.000571 s⁻¹ | kd2 (heterogeneous ligand model, population 2) (Interferon ω-1): 0.00839 s⁻¹
B1: Human S100P protein (recombinant, Ca^2+-loaded) (natural protein)
chain: MTELETAMGMIIDVFSRYSGSEGSTQTLTKGELKVLMEKELPGFLQSGKDKDAVDKLLKDLDANGDAQVDFSEFIVFVAAITSACHKYFEKAGLK
notes: S100P protein, human, recombinant; probably the whole 95-residue protein (surmise); also called wild-type S100P; WT S100P; source: E. coli, prepared as previously described [28]
